In patent publication US20170247677A1:

Key:
[1] = target: Factor Va (UniProt P12259)
[2] = target: FXa^I16M (human) (UniProt P00742); assay: cell-based or functional assay
[3] = target: FXa^I16T (human) (UniProt P00742); assay: cell-based or functional assay
[4] = target: FXa^V17M (human) (UniProt P00742); assay: cell-based or functional assay
[5] = target: FXa^V17S (human) (UniProt P00742); assay: cell-based or functional assay
[6] = target: FXa^V17T (human) (UniProt P00742); assay: cell-based or functional assay
[7] = target: wild-type Factor Xa (human) (UniProt P00742); assay: cell-based or functional assay

Chain of UniProt P12259 (P12259 29-2224): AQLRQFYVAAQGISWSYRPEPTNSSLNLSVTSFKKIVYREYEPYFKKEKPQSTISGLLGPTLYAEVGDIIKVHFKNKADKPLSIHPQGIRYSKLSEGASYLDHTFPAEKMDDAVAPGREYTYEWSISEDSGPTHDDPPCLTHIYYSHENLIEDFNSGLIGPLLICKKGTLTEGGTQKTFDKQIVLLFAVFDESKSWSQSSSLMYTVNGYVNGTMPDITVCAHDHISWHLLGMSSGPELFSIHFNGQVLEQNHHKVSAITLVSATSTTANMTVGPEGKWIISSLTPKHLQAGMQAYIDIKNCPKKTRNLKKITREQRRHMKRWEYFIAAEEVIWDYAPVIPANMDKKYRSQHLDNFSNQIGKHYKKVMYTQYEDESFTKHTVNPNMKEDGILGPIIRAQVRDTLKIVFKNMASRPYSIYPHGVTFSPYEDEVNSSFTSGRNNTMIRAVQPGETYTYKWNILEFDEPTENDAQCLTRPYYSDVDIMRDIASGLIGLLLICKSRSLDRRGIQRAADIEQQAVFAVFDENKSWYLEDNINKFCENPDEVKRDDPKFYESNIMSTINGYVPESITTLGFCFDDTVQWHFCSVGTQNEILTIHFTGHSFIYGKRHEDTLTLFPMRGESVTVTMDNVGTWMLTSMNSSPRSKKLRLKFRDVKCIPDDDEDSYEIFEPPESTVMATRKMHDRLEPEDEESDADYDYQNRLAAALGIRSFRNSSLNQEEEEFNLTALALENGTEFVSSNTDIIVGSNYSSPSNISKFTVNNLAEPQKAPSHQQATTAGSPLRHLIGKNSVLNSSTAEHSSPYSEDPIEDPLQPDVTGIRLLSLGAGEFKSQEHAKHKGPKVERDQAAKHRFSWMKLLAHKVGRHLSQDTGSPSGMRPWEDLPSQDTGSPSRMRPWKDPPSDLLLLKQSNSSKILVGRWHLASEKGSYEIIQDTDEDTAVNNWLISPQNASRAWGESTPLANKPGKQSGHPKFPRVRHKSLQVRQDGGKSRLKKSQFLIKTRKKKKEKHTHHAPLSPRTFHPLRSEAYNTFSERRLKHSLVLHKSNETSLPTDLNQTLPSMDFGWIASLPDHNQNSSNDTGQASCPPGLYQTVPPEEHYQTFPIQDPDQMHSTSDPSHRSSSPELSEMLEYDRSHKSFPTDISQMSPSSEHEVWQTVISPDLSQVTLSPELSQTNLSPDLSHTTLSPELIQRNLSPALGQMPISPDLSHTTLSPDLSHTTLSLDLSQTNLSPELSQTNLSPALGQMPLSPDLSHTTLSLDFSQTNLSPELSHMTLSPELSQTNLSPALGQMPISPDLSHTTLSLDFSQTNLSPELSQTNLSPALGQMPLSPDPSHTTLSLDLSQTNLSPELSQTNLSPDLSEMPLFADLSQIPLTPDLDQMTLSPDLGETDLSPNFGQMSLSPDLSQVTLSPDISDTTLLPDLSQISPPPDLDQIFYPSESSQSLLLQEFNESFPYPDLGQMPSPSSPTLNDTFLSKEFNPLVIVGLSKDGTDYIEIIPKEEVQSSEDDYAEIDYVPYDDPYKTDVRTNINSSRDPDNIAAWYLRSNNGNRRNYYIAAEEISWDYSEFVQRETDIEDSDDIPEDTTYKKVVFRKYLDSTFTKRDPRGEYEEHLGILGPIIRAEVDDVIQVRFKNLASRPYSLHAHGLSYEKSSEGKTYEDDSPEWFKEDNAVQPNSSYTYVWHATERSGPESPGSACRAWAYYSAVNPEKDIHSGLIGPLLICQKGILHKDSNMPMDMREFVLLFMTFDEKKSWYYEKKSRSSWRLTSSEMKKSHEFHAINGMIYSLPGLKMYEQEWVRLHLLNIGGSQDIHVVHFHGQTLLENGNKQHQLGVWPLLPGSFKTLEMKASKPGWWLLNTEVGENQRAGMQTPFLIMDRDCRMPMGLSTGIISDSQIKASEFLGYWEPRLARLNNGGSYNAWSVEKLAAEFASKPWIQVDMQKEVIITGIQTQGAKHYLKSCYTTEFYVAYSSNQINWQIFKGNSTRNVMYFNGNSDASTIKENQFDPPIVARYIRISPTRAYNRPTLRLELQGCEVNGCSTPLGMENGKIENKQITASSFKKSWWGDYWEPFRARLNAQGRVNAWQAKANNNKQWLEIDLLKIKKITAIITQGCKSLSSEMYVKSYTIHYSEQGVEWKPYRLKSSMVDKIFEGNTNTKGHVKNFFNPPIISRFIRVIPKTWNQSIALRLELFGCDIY

## FXa^V17M
[1]
  kinetics of prothrombin activation in the presence of FVa and anionic membranes (PCPS): demonstrated faster than wild-type kinetics

## antithrombin III (from UniProt P01008 33-464)
[2]
  Fold Difference (rate constant for inhibition by antithrombin, against wtFXa): 40 fold
[3]
  Fold Difference (rate constant for inhibition by antithrombin, against wtFXa): > 100 fold
[4]
  Fold Difference (rate constant for inhibition by antithrombin, against wtFXa): 14 fold
[5]
  Fold Difference (rate constant for inhibition by antithrombin, against wtFXa): > 100 fold
[6]
  Fold Difference (rate constant for inhibition by antithrombin, against wtFXa): 70 fold
[7]
  Fold Difference (rate constant for inhibition by antithrombin, against wtFXa): 1 fold

## FXa^I16M
[1]
  kinetics of prothrombin activation in the presence of FVa and anionic membranes (PCPS): displayed similar to wild-type kinetics

## FXa^I16L
[1]
  kinetics of prothrombin activation in the presence of FVa and anionic membranes (PCPS): demonstrated faster than wild-type kinetics
